Source: publication PMC5624926 (Nature Communications, 2017)

What was measured:
Conditions in all cases: both partners purified
CD22_(20–687)S = target: T1, CD22_(20–687)S (human, UniProt P20273, N-linked glycans of high mannose type (HEK293S)); experiment: BLI; Octet RED96; CD22_(20–687) forms loaded on Ni-NTA biosensors; Fab in solution 500 to 62.5 nM; 1x PBS pH 7.4, 0.002% Tween, 0.01% BSA; 1:1 fit; triplicate
T1 construct: differs in the glycoform; also called full-length CD22 ECD made in HEK293S (HEK293 Gnt I−/−); source: HEK293 Gnt I−/− (HEK293S), transiently transfected, secreted, purified (Ni-NTA, Superdex 200); not shown: His6, C-terminal, kept

CD22_(20–687)F N231Q = target: T2, CD22_(20–687)F N231Q (human, UniProt P20273, N231Q, N-linked glycans with mature carbohydrates (HEK293F); glycosylation site N231 knocked out); experiment: as above
T2 construct: also called CD22 N231Q mutant; source: HEK293F, transiently transfected, secreted, purified (Ni-NTA, Superdex 200); not shown: His6, C-terminal, kept

CD22_(20–687) = target: T3, CD22_(20–687) (human, UniProt P20273, N-linked glycans; glycoform not stated); experiment: negative-stain electron microscopy; CD22_(20–687) in complex with epratuzumab Fab, 2% uranyl formate stain; 2D class averages and ab initio 3D envelope
T3 construct: also called full-length CD22 ECD; not shown: His6, C-terminal, kept

B1: epratuzumab Fab (Fab, V domains shown)
VH: QVQLVQSGAEVKKPGSSVKVSCKASGYTFTSYWLHWVRQAPGQGLEWIGYINPRNDYTEYNQNFKDKATITADESTNTAYMELSSLRSEDTAFYFCARRDITTFYWGQGTTVTVSS
VL: DIQLTQSPSSLSASVGDRVTMSCKSSQSVLYSANHKNYLAWYQQKPGKAPKLLIYWASTRESGVPSRFSGSGSGTDFTLTISSLQPEDIATYYCHQYLSSWTFGGGTKLEIK
notes: heavy chain of the epratuzumab Fab, gene synthesized by GeneArt; PDB 5VL3, complex with CD22; light chain of the epratuzumab Fab, gene synthesized by GeneArt; Therapeutic anti-CD22 antibody, used as Fab; purified on KappaSelect, so the light chain should be kappa (surmised); source: HEK293F, heavy and light chain co-transfected, purified (KappaSelect, MonoS, Superdex 200)
- binding result (CD22_(20–687)S): binds
- fold improvement in affinity against WT CD22 (CD22_(20–687)F N231Q): 6 fold
- fold increase in on-rate against WT CD22 (CD22_(20–687)F N231Q): 25 fold
- binding result (CD22_(20–687)): binds
